One block for each molecule: values may come before it.
Assays:
[1] = target: T1, EcA2-4M (L-asparaginase II, BL21(DE3) / Elspar sequence) (Escherichia coli, UniProt P00805, N86D/S274T/T285N/V49A); experiment: intrinsic tryptophan fluorescence titration (spectral center of mass), Hill fit; type: binding
T1 construct: gene ansB; mature protein (precursor residues 23 to 348) behind a pelB leader, pET25b, secreted from E. coli BL21(DE3), purified from medium; no tag mentioned; homotetramer with four active sites
T1 sequence (P00805 23-348 V49A/N86D/S274T/T285N): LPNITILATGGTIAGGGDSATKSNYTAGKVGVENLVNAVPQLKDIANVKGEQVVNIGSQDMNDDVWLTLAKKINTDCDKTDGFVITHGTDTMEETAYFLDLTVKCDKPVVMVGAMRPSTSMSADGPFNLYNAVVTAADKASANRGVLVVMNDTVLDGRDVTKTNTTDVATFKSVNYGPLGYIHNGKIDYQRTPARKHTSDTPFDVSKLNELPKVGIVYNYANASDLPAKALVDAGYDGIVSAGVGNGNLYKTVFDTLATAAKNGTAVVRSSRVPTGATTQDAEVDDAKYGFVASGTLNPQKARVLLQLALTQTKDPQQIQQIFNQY

[2] = target: T2, EcA2-K12 (L-asparaginase II, K12 strain) (Escherichia coli, UniProt P00805); experiment: as above; type: binding
T2 construct: gene ansB; mature protein (precursor residues 23 to 348) behind a pelB leader, pET25b, secreted from E. coli BL21(DE3), purified from medium; no tag mentioned; homotetramer with four active sites
T2 sequence (P00805 23-348): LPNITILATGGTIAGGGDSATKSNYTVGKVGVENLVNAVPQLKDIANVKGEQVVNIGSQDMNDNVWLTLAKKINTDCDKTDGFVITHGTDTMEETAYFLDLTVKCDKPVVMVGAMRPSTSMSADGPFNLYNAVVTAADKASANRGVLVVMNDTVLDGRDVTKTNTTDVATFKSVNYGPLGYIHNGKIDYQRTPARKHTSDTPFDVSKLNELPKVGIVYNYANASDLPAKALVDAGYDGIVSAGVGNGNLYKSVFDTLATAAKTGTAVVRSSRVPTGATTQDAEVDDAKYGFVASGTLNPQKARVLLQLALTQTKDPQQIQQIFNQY

[3] = SEC; analytical size exclusion chromatography, TSKgel G2000SWXL, 50 uM enzyme in 25 mM sodium phosphate pH 7.4, 100 mM sodium chloride, 0.35 mL/min; hydrodynamic radius against globular standards
[4] = target: L-asparaginase II from the K12 strain (EcA2-K12) (Escherichia coli, strain K12 (strain printed; the species name is lost from the text shown)); experiment: as above
[5] = target: L-asparaginase II variant EcA2-4M (sequence of the BL21(DE3) strain and of Elspar) (Escherichia coli, strain BL21(DE3) (strain printed; the species name is lost from the text shown)); experiment: as above
[6] = substrate: NC(=O)C[C@H](N)C(=O)O; experiment: 1D 1H NMR progress curves, Lambert W fit of integrated Michaelis-Menten equation; type: biochemical, Escherichia coli; details: 160 μM L-Asn, 2.1 nM enzyme, 100 mM sodium phosphate pH 8.0, 10% D2O, 25 °C
Source text: (§1) 1D 1H NMR progress curves, Lambert W fit of integrated Michaelis-Menten equation on EcA2-K12 (L-asparaginase II, K12 strain)

[7] = substrate: NC(=O)CC[C@H](N)C(=O)O; experiment: as above; type: biochemical, Escherichia coli; details: 640 μM L-Gln, 2.5 μM enzyme, 100 mM sodium phosphate pH 8.0, 10% D2O, 25 °C
Source text: as §1

[8] = substrate: NC(=O)C[C@H](N)C(=O)O; experiment: as above; type: biochemical, Escherichia coli; details: 160 μM L-Asn, 1.0 nM enzyme, 100 mM sodium phosphate pH 8.0, 10% D2O, 25 °C
Source text: (§2) 1D 1H NMR progress curves, Lambert W fit of integrated Michaelis-Menten equation on EcA2-4M (L-asparaginase II, BL21(DE3) / Elspar sequence)

[9] = substrate: NC(=O)CC[C@H](N)C(=O)O; experiment: as above; type: biochemical, Escherichia coli; details: 640 μM L-Gln, 1.3 μM enzyme, 100 mM sodium phosphate pH 8.0, 10% D2O, 25 °C
Source text: as §2

Molecule: N[C@@H](CC(=O)O)C(=O)O [L-Asp]
Kd [1]: 66 ± 14 µM
Kd [2]: 211 ± 52 µM

Molecule: L-asparaginase II from the K12 strain (EcA2-K12)
prepeak percentage of the total area (species of larger hydrodynamic radii) [3]: 13% for EcA2-K12

stoichiometry N [4]: 4
Molecule: L-asparaginase II from the K12 strain (EcA2-K12) (enzyme)

Molecule: L-asparaginase II variant EcA2-4M (sequence of the BL21(DE3) strain and of Elspar)
prepeak percentage of the total area (species of larger hydrodynamic radii) [3]: approximately 5%

stoichiometry N [5]: 4
Molecule: L-asparaginase II variant EcA2-4M (sequence of the BL21(DE3) strain and of Elspar) (enzyme)

B1: EcA2-K12 (L-asparaginase II, K12 strain) (Escherichia coli K-12) (protein)
chain: LPNITILATGGTIAGGGDSATKSNYTVGKVGVENLVNAVPQLKDIANVKGEQVVNIGSQDMNDNVWLTLAKKINTDCDKTDGFVITHGTDTMEETAYFLDLTVKCDKPVVMVGAMRPSTSMSADGPFNLYNAVVTAADKASANRGVLVVMNDTVLDGRDVTKTNTTDVATFKSVNYGPLGYIHNGKIDYQRTPARKHTSDTPFDVSKLNELPKVGIVYNYANASDLPAKALVDAGYDGIVSAGVGNGNLYKSVFDTLATAAKTGTAVVRSSRVPTGATTQDAEVDDAKYGFVASGTLNPQKARVLLQLALTQTKDPQQIQQIFNQY
notes: mature protein (precursor residues 23 to 348) behind a pelB leader, pET25b, secreted from E. coli BL21(DE3), purified from medium; no tag mentioned; homotetramer with four active sites
Km [6]: 8 ± 3 µM
Km [7]: 2301 ± 75 µM

B2: EcA2-4M (L-asparaginase II, BL21(DE3) / Elspar sequence) (Escherichia coli K-12; N86D/S274T/T285N/V49A) (protein)
chain: LPNITILATGGTIAGGGDSATKSNYTAGKVGVENLVNAVPQLKDIANVKGEQVVNIGSQDMNDDVWLTLAKKINTDCDKTDGFVITHGTDTMEETAYFLDLTVKCDKPVVMVGAMRPSTSMSADGPFNLYNAVVTAADKASANRGVLVVMNDTVLDGRDVTKTNTTDVATFKSVNYGPLGYIHNGKIDYQRTPARKHTSDTPFDVSKLNELPKVGIVYNYANASDLPAKALVDAGYDGIVSAGVGNGNLYKTVFDTLATAAKNGTAVVRSSRVPTGATTQDAEVDDAKYGFVASGTLNPQKARVLLQLALTQTKDPQQIQQIFNQY
notes: as for B1
Km [8]: 11 ± 5 µM
Km [9]: 3111 ± 159 µM

— paper PMC12273708, “Biochemical and Biophysical Divergences between Two L‑Asparaginase II Variants: Potential for Using EcA2-K12 as a Biosimilar” (Biochemistry, 2025)
